# Source: the nanobody polyreactivity screen of Harvey et al. (2022)
# Test: yeast display, Sf9 membrane polyspecificity reagent, FACS + sequencing; frameworks hold sequencing errors
# Summary of the method: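 After 36–48 hours of galactose induction, yeast (Saccharomyces cerevisiae BJ5465) displaying a synthetic nanobody library were stained at 4 °C for 1 hour with 10% biotinylated, detergent-solubilized Sf9 membrane reagent. Streptavidin microbeads enriched the stained cells before FACS sorting into low and high (top ~1%) gates on anti-HA and streptavidin fluorescence. Each clone's polyreactivity label reflects its gate of origin.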
row,Sequence,polyreactivity (PSR sort gate)
1,QVQLVESGGGLFQAGGSLRLSCAASGSTLRDYVMGWYRQAPGKERELVAAISWTGDRTYYADSVKGRFTISRDNAKNTVYLQMNSLKPEDTAVYYCNAVYHVTRQGNLDSWGQGTQVTVSS,low polyreactivity
2,QVQLVESGGGLFQAGGSLRLSCAASVITFSQYVMGWYRQAPGKERELVAAISYRGGTTYYADSVKGRFTISRDNAKNTVYLQMISLKPEDTAVYYCATLPQRQYSTRDYWGQGTQVTVSA,high polyreactivity
3,QVQLVESGGGLFQAGGSLRLSCAPSGFTFSWYDMGWYRQAPGKERELVAAISLSGDRTYYADSVKGRFTISRDNAKNTVYLQMNSLKPEDTAVYYCAADERVDQCWIRMDYWGQGTQVTVSS,low polyreactivity
4,QVQLVESGGGLFQAGGSLRLSCAPSGIFRYYVMGWYIQAPGKERELVAAISWGGGSTYYADSVKGRFTISRDNPKNTVYLQMNSLKPEDTAVYYCAARDLRKLYSRYPYYYWGQGTQVTVSS,high polyreactivity
5,QVQLVESGGGLFQAGGSLRLSCAPSGNNFYGNDMGWYRQAPGKERDLVAAISRGGSTYYADSVKGRFTSSRDNAMNTVYLQMNSLKPEDSEVFYCAADYAYTTISWDDYWGQGTLVTVSS,low polyreactivity
6,QVQLVESGGGLFQAGGSLRLSCASSGFIFVRYAMGWYIQAPGKERELVAGINSGGSTSYADSVKGRFTISRDNAKNSVYLQMNSLKPEDTAVYYCAAAKFRRGTRYYYCGQGTQVTVSS,high polyreactivity
7,QVQLVESGGGLFQAGGSLRLSCDASGRNFSGNAMGMYRQAPGKERELVAAITWSGSSTFYADSVKGLFTISRDYAKNTVYFQMNSLKPEDTAVYYCAVDSSSPVRPHSDEDYWGQGTQVTVSS,low polyreactivity
8,QVQLVESGGGLFQAGGSLRLSSAASGSIFHPYAMGWYRQAPGKERELVAAISSSTGRTYYADYVKGRFTISRDNAKNTVYLQMNSLKPEDTAVYYCAARKKYSEFDYWGQGTQVTVSS,high polyreactivity
9,QVQLVESGGGLFQAGGSLRLTCAASGSTISDYAIGWYRQAPGKERELVAAISTRGGSTYYADSVKGRFTISRDNAKNTVYLQMNSLKPEDTAVYYCAKGGYVPKLEYWGQGTQVTVSS,high polyreactivity
10,QVQLVESGGGLFQAGRSLRLSCAASGITFGYYGMGWYRQAPVKERELVATISQRGGSTYYAVSVKGRFTISRDNAKNTVYLQMNSLKPEDTAFYYSNADAYRYYDYDLLFHYDYWGQGTQVTVSS,low polyreactivity
11,QVQLVESGGGLFQEGGSLRLSCAASGIISKYYAMGWYRQAPGKERELVAAITRSGTSTYYADSVKGRFTISRDNAKNSVYLQMNSLKPEDTAVYYCAAVSGGRTPRYDYWGQGTQVTVSS,high polyreactivity
12,QVQLVESGGGLFQEGGSLRLSCAASGRIFSYYAMGWYRQAPGKERELVAGISSGGRTNYADSVKGRFTISRDNAKNTVYLQMNSLKPEDTAVYYCIARSFSLYWAYNYWGQGTQVTVSL,high polyreactivity
13,QVQLVESGGGLFQEGGSLRLSCAASGSIFSYYAMGWYRQAPGKERELVAAISTYGGRTYYADSVKGRFTISRDNAKNTVYLQMNSLKPEDTAVYYCAGPVRWKNYDYWGQGTPVTVSS,high polyreactivity
14,QVQLVESGGGLFQTGGSLRLSRAASGRTFRYYVMGWYRQAPWKESELVAAISWSGGRTNYADSVKGRFTISRDNAKNTVYLQMNCLKPEDTSVYYCIAAGPALRRYDYWGQGTQVTVSS,high polyreactivity
15,QVQLVESGGGLGQAGGSLGLSCAASGRTFYVNAMGWYRQAPGKERELVAAISWSGGSTYYADSVKGRFTISRDNAKNTVYLPINSLNPEDTAVYYCAAEDIEDYEYWGQGTQVTVSS,low polyreactivity
16,QVQLVESGGGLGQAGGSLRLICAASGSIFYSNAMGWYRQATGKERELVAAISWNGGRTYYADSVKGRFTISRDTAKNTVYLQMNSLKPEDTAVYFWAAKYRNRYDFWGQGTQVTVSS,low polyreactivity
17,QVQLVESGGGLGQAGGSLRLICAASGSTFRHYAMGWYRPAPRKERELVAVISWGGTSTYYADSVKGRFTISRDNAKNTVYLQMNSLKPEDTAVYYCNKAYFPIFKGYEMYYWGQGTQVTVSS,low polyreactivity
18,QVQLVESGGGLGQAGGSLRLSCAASGFIFGPYAMGWYRQARGKETELVAAISSSGGSTSYADSVKGRFTISRDNAKNTVYLQMNSLKPEDTAVYYCAARGRYRFYSNNYDYWGQGTQVTVSS,high polyreactivity
19,QVQLVESGGGLGQAGGSLRLSCAASGGTFYYYAMGWSRQAPGKERELVAAITESGGSTYYGDSVKGRFTISRDNAKNTVNLQMNSLKPEDTAVYYCAAETYYGDDGYWGQGTQVTVSS,low polyreactivity
20,QVQLVESGGGLGQAGGSLRLSCAASGIIFYPNAMGWYRQAPGKERELVAAISCRSGSTYYADSVKGRITISRDNEKNTVYLQMNSLKPEDTSVYYCAADRRRSYIWRYDYWGQGTQVTVSS,low polyreactivity
21,QVQLVESGGGLGQAGGSLRLSCAASGITYDGYAMGWYRQAPGKERELVAAITYSGGRTYYADSVKGRFTISRDNAKNTVYLQMNSLKPEDTAVYYCAVVSRRLYEYDYWGQGTQVTVSS,high polyreactivity
22,QVQLVESGGGLGQAGGSLRLSCAASGNTFYWNAMGWYRQAPGKERELVAAISTTGVSSYYADSVKGRFTISRDNAKNSVYLQMNSLKPEDTAVYYCAGEIIGYHTIYDYWGQGTQVTVSS,low polyreactivity

row,Sequence,polyreactivity (PSR sort gate)
1,QVQLVESGGGLGQAGGSLRLSCAASGSTFQIYAMGWYREAPGKEWEFVAAITSSSSTNYADSVKGRFTISRDNAKNTVYLQMNSLKPEDTAVYYCAADVSWRSNWYDYWGQGTQVTVSS,low polyreactivity
2,QVQLVESGGGLGQAGGSLRLSCAASGYTFRNYVMGWYRPAPGKERQLVATISRGGRTNYADSVKGRFTISRDNAKNTVYLQMNSLKPEDTAVYYCNADWSRVPYRYDYWGQGTQVTVSS,high polyreactivity
3,QVQLVESGGGLGQAGGSLRLSSAASGRTVSTNDMGWYRHAPGKERELVAAIDFDSDSTYYADSVKGRFTISRDNAKNTVYLQMHSLKPEDTAVYYCAAQYFSYGESYEYWGQGTHVTVSS,low polyreactivity
4,QVQLVESGGGLGQAGGSLRLSSAASGSIFWFYAMGWYRQAPGKERELVAAITSSGGTDYADSVKGRFSISRDNAKNTVYLQMNSLKPEDSAVYYCAADRIGGPGSYLYDYWGQGTQVTVSS,low polyreactivity
5,QVQLVESGGGLHQAGGSLRLSCAASGSISGYNPMGWYRQAPGKESELVAVNTTDGSTNYADSVKGRFTISRDNAKNTVYLQMNSLKPEDTAVYYCNTHDGWRLLWEYDYWGQGTQVTVSS,low polyreactivity
6,QVQLVESGGGLLQAGGRLRLSCAASGFTSTRYAMGWYRQAPGKERELVAAISYGGGDTYYADSVKGRFTISRDNAKNTVYIQMNSMKPEDTAVYYCSSRLRSRNTRLYHWGQGTQGTVSS,high polyreactivity
7,QVQLVESGGGLLQAGGSLRISCAASGRIFYAKAMGRYRQAPGKERELVAGISSGGITNYADSVKGRFTISRDNAKNTVYLQMNSLKPEDTAVYYCAVESWNRWRNRNDYWGQGTQVSVSS,low polyreactivity
8,QVQLVESGGGLLQAGGSLRLICAASGRIFTYNAMGWYRQAPGKERELVAAISRRGGTTYYADSVKGRFTISRDNAKNTVYLQMNSLKPEDTAVYYCAALLYYATDDDYWGQGTQVTVSS,high polyreactivity
9,QVQLVESGGGLLQAGGSLRLSCAASGFIFGGNAMGWYREAPGKERELVAAIRSGGSTYYADSVKVRFTISRDNAKNTVYLQMISLKPLDTAVDYCAVRLRYAYRARGNYWGQGTQVTVSS,low polyreactivity
10,QVQLVESGGGLLQAGGSLRLSCAASGFIFYDYAMGWYRQAPGKERELVAAITKPGGSTYYADSEKGRFTISRDNAKNTVYLQMNSLKPEDTAGYYCAADVMYYHKLTYGYDYWGQGTQVTVSS,high polyreactivity
11,QVQLVESGGGLLQAGGSLRLSCAASGFSFLCYAMGWYRQEPRKERELVASITYGGDSTYYADSVKGRFTISRDNAKNTVYLQMNSLKPEDTAGYYCNARPSYWWGGRLYGYWGQGTQVTVSS,high polyreactivity
12,QVQLVESGGGLLQAGGSLRLSCAASGGIIYYNAMGWSRQAPGKERELVAAIRYRGGSTYYADSVKGRFTISRDNEKNTVYLQMNSLKPEYTAVYYCAVDNLRRGLSLYDTLDYWGQGTQVTVSS,low polyreactivity
13,QVQLVESGGGLLQAGGSLRLSCAASGGIKSENAMGWYRQAPRKERELVAVITDGGSTNYADSVKGRFTISRDNAKNTVYLQMNSLKPEDTAVYYCAKDTYLELWLDPLYDYWGQGTQVTVSS,low polyreactivity
14,QVQLVESGGGLLQAGGSLRLSCAASGIIIVGYAMGWYRQAPGKERELVAAISRSSGSTYYADSVKGRFTISRDNAKNTVYLQMNSLKPEDTAVYYCARYNQYYSTEDYWGQGPQVTVSS,high polyreactivity
15,QVQLVESGGGLLQAGGSLRLSCAASGITFYLYAMGWYRQAPGKVRELVAAITKSGASTYYADSVKGRFTISRDNAKNTVYLQMNSLKPEDTAVYYCAAVLQSGYGYEYWGQGTQVTVSS,high polyreactivity
16,QVQLVESGGGLLQAGGSLRLSCAASGLIFQNYAMGSYRQAPGKEREFVATITSSGTSTYYADSVKGRFTISRDNAKNTVYLQMNSLKPEDTAVYYCAATGYWWEYDYWGQGTQVTVSS,high polyreactivity
17,QVQLVESGGGLLQAGGSLRLSCAASGLIFYDNMGWYRQAPGKERELVAAISSTGGSTSYADSVKGRFTISRDNAKNTVYLLMNSLKPEDTAVYYCAADSYPAYLGFVGFDYWGQGTQLTVSS,low polyreactivity
18,QVQLVESGGGLLQAGGSLRLSCAASGNTFVKYTMGWYRQAPGKERELVAAITWSGGSTSYADSVKGRFTISRDNAKNTVYLQMNSLKPEDTAVYYCAAAWSHSRWDTHDYWGQGTQVTVSS,low polyreactivity
19,QVQLVESGGGLLQAGGSLRLSCAASGRTFATYAMGWYRQAPGKERELVAAITSGGSTNYADSVKGRFTISRDNAKNTVYLQMNSLKPEDTAVYYCNAYKTNRGSGPWYTGRYDYWGQGTQVTVSS,low polyreactivity
20,QVQLVESGGGLLQAGGSLRLSCAASGRTFGSYAKGWYRQAPGKERELVAGIRSDDITHYADSVKGRFTISRDNAKNTVYLQMNSLKPEDTAVYYCAKDYKCIATEGAFDYWGQGTQVTVSS,low polyreactivity
21,QVQLVESGGGLLQAGGSLRLSCAASGRTFNKYAMGWYRKAPGIVRELVAAINYSGGRTYYADSVKGRFTISRDNAKNSVYLEMNSLKPEDTAVFYCAATPTFFVWQGYNYWGQGTQVTVSS,low polyreactivity
